Biological target: biotinylated SARS-CoV-2 prototype RBD (SARS-CoV-2 (prototype), UniProt P0DTC2, biotin (biotinylated; site not stated))
Test: BLI
Settings: both partners purified

B1: pan-sarbecovirus mAb S2H97 (antibody, V domains shown)
VH: QVRLVQSGAEVKKSGESLKISCKGSGYSFTSYWIGWVRQMPGKGLEWMGIIYPGDSDTRYSPSFQGQVTISADKSISTVYLQWSSLKASDTAMYYCARQWSHYTYDYYYWGQGTLVTISS
VL: QSVLTQPASVSGSPGQSITISCTGISSDVGGYNSVSWYQQHPGKAPKLMIYDVTNRPSGVSNRFSGSKSGNTASLTISGLQAEDEADYYCSSYTSSSTPPYVFGTGTKVSVL
  binding result: binds

Reference: paper PMC10382582 (Cell Discovery, 2023)
